{
  "source": "paper PMC5906480",
  "about": "“Tau Antibody Structure Reveals a Molecular Switch Defining a Pathological Conformation of the Tau Protein” (Scientific Reports, 2018)",
  "key": {"[1]": {"tested_on": "pS396/pS404 peptide", "experiment": "ELISA, pS396/pS404 peptide", "type": "binding", "details": "plate coated with peptide 2 μg/mL; C5.2 IgG 8 μg/mL–0.05 ng/mL, 1 h room temperature; 405 nm", "procedure": "(§1) Immulon 4 HBX (extra high-binding) 96-well microtiter plates (Thermo Scientific) were coated with the same peptide used for crystallization diluted to 2 μg/mL in phosphate-buffered saline (PBS) and left overnight at 4 °C (Table 1). Plates were then washed three times in PBS-T (PBS containing 0.05% Tween-20) and blocked in 5% non-fat milk and 3% bovine serum albumin in PBS for 2 hours at room temperature. Plates were subsequently washed 3 times in PBS-T before C5.2 was serially diluted (8 μg/mL–0.05 ng/mL) in PBS and incubated for 1 hour at room temperature. Then, alkaline phosphatase-conjugated goat anti-mouse IgG (Southern Biotech) was diluted 1:2000 in PBS and incubated for 30 minutes at room temperature. Finally, bound IgG was analyzed by addition of p-nitrophenyl phosphate substrate (Thermo Scientific) and measurement at 405 nm on a VersaMax Microplate Reader.\n(§2) In order to evaluate the ability of C5.2 to exclusively target the phosphorylated epitope, we performed an enzyme-linked immunosorbent assay (ELISA). The peptides used in the assay are the same peptides used for crystallization and diluted to a concentration of 2 μg/mL (Table 1). Binding curves were generated from ELISA data by maintaining plate-bound peptide concentrations and serially diluting C5.2 IgG (Fig. 1c)."}, "[2]": {"tested_on": "pS396 peptide", "experiment": "ELISA, pS396 peptide", "type": "binding", "procedure": "as §1, §2"}, "[3]": {"tested_on": "pS404 peptide", "experiment": "ELISA, pS404 peptide", "type": "binding", "details": "plate coated with peptide 2 μg/mL; C5.2 IgG 8 μg/mL–0.05 ng/mL, 1 h room temperature; 405 nm", "procedure": "as §1, §2"}, "[4]": {"tested_on": "tau in brain fractions of rTg4510 mice overexpressing human tau with P301L mutation", "experiment": "Western and dot blot, rTg4510 mouse brain", "type": "binding, human tau in rTg4510 mouse", "details": "C5.2 1 µg/mL overnight 4 °C, 24 weeks old mice", "from_the_text": "rTg4510, tTA and non-Tg littermate F1 mice were bred at Taconic, Denmark. Mice expressing the tTA activator transgenes were maintained on 129S6 background strain (Taconic) and mutant tau responder mice were maintained in the FVB/NCrl background strain (Taconic). Mice were screened by PCR using the following primer pairs [NT] and [NT] for the tTA activator transgene and [NT] and [NT] for the mutant tau responder transgene. rTg4510, tTA and non-Tg littermates were group-housed (5 animals/cage) and received water and food ad libitum (Brogaarden, Denmark) as well as environmental enrichment. The light/dark cycle was 12 hours; room temperature was 21 ± 2 °C and a relative humidity of 55% ± 5%. All animal experiments were performed in accordance with the European Communities Council Directive #86/609, the directives of the Danish National Committee on Animal Research Ethics, and Danish legislation on experimental animals (license no. 2014-15-0201-00339). Mice were euthanized by cervical dislocation. Brains were quickly removed, weighed and divided sagittally down the midline to yield two hemispheres. […] Tau and pTau levels were assessed in the samples using 1 μg/mL C5.2 overnight at 4 °C. A secondary fluorophore conjugated IgG antibody was used (IRDye 680 Goat anti-mouse, LICOR biosciences) and the signal was quantified using Odyssey CLx and Image studio software (LI-COR biosciences). […]"}, "[5]": {"tested_on": "tau pathology in Alzheimer's disease brain sections (prefrontal cortex)", "experiment": "Immunohistochemistry, Alzheimer's disease brain sections", "type": "binding, human", "details": "C5.2 at 0.1 to 1 μg/mL, overnight 4 °C, paraffin sections", "procedure": "(§3) Paraffin sections of 4 μm thickness were prepared from blocks of PFA-fixed prefrontal cortex from AD donors and non-demented controls obtained from Tissue Solutions (Glasgow, UK). The sections were deparaffinised, rehydrated and subjected to antigen retrieval by boiling in 10 mM citrate buffer pH 6 for 5 min. Endogenous peroxidase was quenched for 10 min with 1% H2O2 in PBS. Sections were then incubated 20 min in blocking buffer followed by overnight incubation in a humidified chamber at 4 °C with primary antibody at 0.1 to 1 μg/mL in incubation buffer. Between each incubation step, the sections were washed 3 × 10 min in wash buffer. Subsequently, the sections were incubated at room temperature in the following solutions; 60 min with a biotinylated secondary Ab diluted 1:200 in wash buffer; 60 min in ABC; 20 min in DAB. Finally, the sections were counterstained with hematoxylin and coverslipped."}, "[6]": {"tested_on": "normal tau in brain sections from healthy control subjects (prefrontal cortex)", "experiment": "Immunohistochemistry, healthy control brain sections", "type": "binding, human", "details": "C5.2 at 0.1 to 1 μg/mL, overnight 4 °C, paraffin sections", "procedure": "as §3"}},
  "note": "“Also recorded” adds a separate entry of the source.",
  "data": [
    {"molecule": "C5.2: novel mouse monoclonal antibody that targets the pS396 tau epitope region (antibody, V domains shown) VH: QVQLQQSDAELVKPGASVKISCKASGYTFTDRTIHWVKQRPEQGLEWIGYIYPGDDSTKYNDMFKAKATLTADKSSNTAYMQLNSLTSDDSAVYFCARRGTMDYWGQGTSVTVSS VL: DVQMIQSPSSLSASLGDIVTMTCQASQDTSINLNWFQQKPGKAPKLLIYGASNLEDGVPSRFSGSRYGTDFTLTISSLEDEDMATYFCLQHTYLPFTFGSGTKLEIK", "values": [
      {"measurement": "Association with peptide (ELISA)", "setting": "[1]", "result": "strong association"},
      {"measurement": "Phospho-specificity", "setting": "[2]; ELISA, vs pS404 and non-phosphorylated peptides", "result": "pS396 phosphorylation state-specific mAb"},
      {"measurement": "Association with peptide (ELISA)", "setting": "[2]; plate coated with peptide 2 μg/mL, C5.2 IgG 8 μg/mL–0.05 ng/mL, 1 h room temperature, 405 nm", "result": "strong association"},
      {"measurement": "Recognition of peptide (ELISA)", "setting": "[3]", "result": "lack of recognition; also recorded: does not bind"},
      {"measurement": "Binding to insoluble tau fraction (P3)", "setting": "[4]; sarkosyl-insoluble P3", "result": "binds predominantly to an insoluble tau fraction (P3)"},
      {"measurement": "Reactivity to soluble tau fraction (S1)", "setting": "[4]; soluble S1", "result": "also has reactivity to a soluble tau fraction (S1)"},
      {"measurement": "Binding in AD brain sections", "setting": "[5]", "result": "binds strongly to tangles, pre-tangles and dystrophic neurites"},
      {"measurement": "Binding to normal tau in brain sections", "setting": "[6]", "result": "does not bind to normal tau"}
    ]}
  ]
}
